Data on one molecule can be found in patent US20260191974A1, “B7-H3 TARGETING LIGANDS AND METHODS OF USE” (The University of North Carolina at Chapel Hill, priority 2022, published 2026).

For assay [1], the target named is T1, biotinylated B7-H3 (B7-H3b), immune checkpoint protein.
T1 sequence (Q5ZPR3 whole entry, species assumed, looked up): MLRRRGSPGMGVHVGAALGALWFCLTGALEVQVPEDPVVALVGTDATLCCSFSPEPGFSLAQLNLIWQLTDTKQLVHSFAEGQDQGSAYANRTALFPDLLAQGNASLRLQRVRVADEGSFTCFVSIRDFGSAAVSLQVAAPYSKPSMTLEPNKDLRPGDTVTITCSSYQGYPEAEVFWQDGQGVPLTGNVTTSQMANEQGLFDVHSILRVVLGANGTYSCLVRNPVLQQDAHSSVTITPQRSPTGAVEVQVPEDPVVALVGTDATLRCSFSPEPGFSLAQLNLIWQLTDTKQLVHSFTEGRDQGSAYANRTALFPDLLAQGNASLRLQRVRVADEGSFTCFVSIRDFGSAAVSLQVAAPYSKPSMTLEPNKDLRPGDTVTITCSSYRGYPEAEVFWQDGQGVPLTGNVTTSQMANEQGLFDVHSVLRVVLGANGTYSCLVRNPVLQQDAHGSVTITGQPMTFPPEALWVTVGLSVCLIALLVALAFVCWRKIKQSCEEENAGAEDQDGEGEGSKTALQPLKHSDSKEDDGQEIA
Kind of assay: SPR, biotinylated B7-H3 on NeutrAvidin chip, peptide as analyte. Background: SPR reads the build-up and loss of mass on a sensor chip optically.

The target is the same in assay [2]. In words: SPR (BIACORE 8K, single-cycle kinetics, 1:1 fit); biotinylated B7-H3 on a NeutrAvidin chip, peptide as analyte at 7.5-120 nM.

B1: Met9Nle variant of B1.1 (methionine to norleucine variant of the selected cyclic, disulfide peptide) (peptide)
peptide: WALQLCHSXFYTCKSG
modifications: norleucine (Nle) at position 9; N-terminal acetylation (ac); lactam bridge Q4-K14; disulfide bond C6-C13
One may read the Kd as the concentration at which binding is half-saturated. The koff is the rate constant with which the complex falls apart. Read a low koff as slow dissociation. By kon is commonly meant the second-order rate constant of association. A lower kon goes with slow association. B1: in assay [1], the dissociation constant Kd amounted to 46.9 nM. In assay [2], the koff turned out to be 0.0448 s⁻¹ and the association rate constant (kon) was determined as 955000 M⁻¹ s⁻¹.
